Values of other authors as cited in PMC12720343.

Target: SpoIIQ extracytoplasmic fragment (Bacillus subtilis) (UniProt P71044)
Sequence of UniProt P71044 (P71044 43-283): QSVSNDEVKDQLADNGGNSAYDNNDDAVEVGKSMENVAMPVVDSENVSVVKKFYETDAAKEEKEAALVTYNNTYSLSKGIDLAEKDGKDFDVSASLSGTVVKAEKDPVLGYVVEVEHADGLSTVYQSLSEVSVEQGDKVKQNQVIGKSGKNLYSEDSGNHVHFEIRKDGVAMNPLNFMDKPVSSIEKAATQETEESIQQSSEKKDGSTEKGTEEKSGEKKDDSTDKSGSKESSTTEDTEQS

In the case of “SpoIIIAH extracytoplasmic fragment (from UniProt P49785)”, the Kd is given as 1 µM.
